{"source": "patent US20210292393A1", "about": "(published 2021)", "binders": {"B1": {"name": "antibody 509 (antibody, V domains shown)", "VH": "QVQLVESGGGVVQPGRSLRLSCAASGFNLSSYAMHWVRQASGKGLEWVSLISYDGSIKYYTDSVKGRFTVSGDNSKNTLFLQMNSLRADDSALYYCVRGGVSGPNSFDLWGQGTTVTVSS", "VL": "DVVMTQSPLSLPVTLGQPASISCRSSQSLVYSDGNTYVNWFQQRPGQSPRRLIYKVSIRASGVPDRFSGSGSGTDFALKISRVEAEDVGVYYCMQGTHWPVTFGQGTKVEIK"}, "B2": {"name": "antibody 517 (antibody, V domains shown)", "VH": "B1 VH with S31N, L109M", "VL": "B1 VL with K55Q"}, "B3": {"name": "antibody 504 (antibody, V domains shown)", "VH": "QVQLVESGGGVVQPGRSLRLSCAASGFTFSSYGMHWVRQAPGKGLEWVAVISYDGSNKYYADSVKGRFTISRDNSKNTLYLQMNSLRAEDTAVYYCAKGGGGGYCSGGSCYSHYFDYWGQGTLVTVSS", "VL": "not shown"}, "B4": {"name": "antibody 316 (antibody, V domains shown)", "VH": "QVHLVESGGGVVQPGRSLRLSCAASGFTLTAYAMHWVRQAPGKRLEWVALISYDGSVKKYADSVKGRITVSGDTSTNTLHLQMNSLRADDTAVYYCVRGGVSGPNSFDLWGQGTMVTVSS", "VL": "B1 VL with I21M, V30E, Q42H, I58Y, A60D, A77T, K79Q, V90I"}, "B5": {"name": "antibody 327 (antibody, V domains shown)", "VH": "B1 VH with S31N, A88P, L109M", "VL": "B1 VL with K55Q, V90I"}, "B6": {"name": "antibody 317 (antibody, V domains shown)", "VH": "QVQLVQSGAEVKKPGASVKVSCKVSGYTLTELSMHWVRQAPGKGLEWMGGFDPEDGETIYAQKFQGRVTMTEDTSTDTAYMELSSLRSEDTAVYYCASSPAAAGTSQYYYYYGMDVWGQGTTVTVSS", "VL": "not shown"}, "B7": {"name": "antibody 345 (antibody, V domains shown)", "VH": "QVQLQESGPGLVKPSQTLSLTCTVSGGSISSGDYYWSWIRQPPGKGLEWIGYIYYSGSTYYNPSLKSRVTISVDTSKNQFSLKLSSVTAADTAVYYCARVGMVDNWNFEGNWFDPWGQGTLVTVSS", "VL": "QSALTQPRSVSGSPGQSVTISCTGTSSDVGGYNYVSWYQQHPGKAPKLMIYDVSKRPSGVPDRFSGSKSGNTASLTISGLQAEDEADYYCCSYAGSVVFGGGTKLTVL"}, "B8": {"name": "antibody 331 (antibody, V domains shown)", "V domain 1": "QITLKESGPTLVKPTETLTLTCSFSGFSLTKTGEAAGWIRQAPGRALEWVTVIFWDDDKRYSPSLQNRISVTKDTSKNQVVLRMTNVARFDTGTYFCWAMGGPGKEYFGQGTLVAVSS", "V domain 2": "QSVLTQPPSVSGAPGQRVTISCTGTSSSIGPYSDVHWYQHVSGKAPRLLIFGNSNRPSGVPDRFSGSKSGTSASLVIAGLQAEDEADYYCQSYDSSLGEIYVFGTGTTVTVL"}, "B9": {"name": "antibody 339 (antibody, V domains shown)", "V domain 1": "B8 V domain 1 with K31R, N67S, I69L, S70T, R83T, G93A, L113Q", "V domain 2": "B8 V domain 2"}, "B10": {"name": "antibody 323 (antibody, V domains shown)", "VH": "QVQLVQSGAEVKKPGASVKVSCKVSGYTLTELSMHWVRQAPGKGLEWMGGFDPEDGETIYAQKFQGRVTMTEDTSTDTAYMELSSLRSEDTAVYYCATSTIFAPGGWFDPWGQGTLVTVSS", "VL": "QSALTQPASVSGSPGQSITISCTGTSSDVGSYNLVSWYQQHPGKAPKLMIYEVSKRPSGVSNRFSGSKSGNTASLTISGLQAEDEADYYCCSYAGSTHYVFGTGTKVTVL"}, "B11": {"name": "antibody 344 (antibody, V domains shown)", "VH": "QVQLVESGGGVVQPGRSLRLSCAASGFTFSSYAMHWVRQAPGKGLEWMAVISYDGSNKYYADSVKGRFTISRDNSKNTLYLQMNSLRAEDTAVYFCAKGYSGSYYEPFDYWGQGTLVTVSS", "VL": "not shown"}, "B12": {"name": "antibody 363 (antibody, V domains shown)", "VH": "EVQLLESGGGLVQPGGSLRLSCAASGFTFSTYAMSWVRQAPGKGLEWVSAISGSGGSTYYADSVKGRFTISRDNSKNTLYLQMNSLRAEDTAVYYCASGYSPDYWGQGTLVTVSS", "VL": "not shown"}, "B13": {"name": "antibody 329 (antibody, V domains shown)", "VH": "EVQLVESGGGLVQPGGSLRLSCAASGFTFSSYWMHWVRQAPGKGLVWVSRINSDGSSTSYADSVKGRFTISRDNAKNTLYLQMNSLRAEDTAVYYCAREGIVATITLDYWGQGTLVTVSS", "VL": "not shown"}, "B14": {"name": "antibody 320 (antibody, V domains shown)", "VH": "QVQLVQSGAEVKKPGASVKVSCKASGYTFTSYGISWVRQAPGQGLEWMGWISAYNGNTNYAQKLQGRVTMTTDTSTRTAYMELRSLRSDDTAVYYCARVGCYYDSSGYSCAENFQHWGQGTLVTVSS", "VL": "QSVLTQPPSVSGAPGQRVTISCTGSSSNIGAGYDVHWYQQLPGTAPKLLIYGNSNRPSGVPDRFSGSKSGTSASLAITGLQAEDEADYYCQSYDSSLSALFGGGTKLTVL"}, "B15": {"name": "antibody 326 (antibody, V domains shown)", "VH": "QITLKESGPTLVKPTQTLTLTCTFSGFSLNTSGVGVGWIRQPPGKALEWLSLIFWNDDKRYSPSLRSRLTITKDTSKNQVVLTMTNMDPVDTATYFCAHRNSGWSLKFDSWGQGSLVTVSA", "VL": "DIQMTQSPSSVSASVGDRVTITCRARQGISSWLVWYQQKPGKAPKLLIFGASSLQSGVPSRFNASGTGTEFTLTISSLQPEDFATYYCQQADSFPITFGQGTRLEIK"}, "B16": {"name": "antibody 348 (antibody, V domains shown)", "VH": "QVQLVQSGSELKKPGASVKVSCKASGYTFTSYAMNWVRQAPGQGLEWMGWINTNTGNPTYAQGFTGRFVFSLDTSVSTAYLQISSLKAEDTAVYYCARDHELPNTSSWFGHFEYWGQGTLVTVSS", "VL": "not shown"}, "B17": {"name": "antibody 340 (antibody, V domains shown)", "VH": "QVQLVQSGAEVKKPGASVKVSCKASGYTFTSYDINWVRQATGQGLEWMGWMNPNSGNTGYAQKFQGRVTMTRNTSISTAYMELSSLRSEDTAVYYCARGRYCTGGVCWGDWYFDLWGRGTLVTVSS", "VL": "QSVLTQPPSVSGAPGQRVTISCTGSSSNIGAGYDVHWYQQLPGTAPKFLIYGNSNRPSGVPDRFSGSKSGTSASLAITGLQAEDEADYYCQSYDSSLSGPVFGGGTKLTVL"}, "B18": {"name": "antibody 537 (antibody, V domains shown)", "VH": "QVQLQQWGAGLLKPSETLSLTCAVYGGSFSGYYWSWIRQPPGKGLEWIGEINHSGSTNYNPSLKSRVTISVDTSKNQFSLKLSSVTAADTAVYYCARGLYYDMGGGFDYWGQGTLVTVSS", "VL": "not shown"}, "B19": {"name": "antibody 543 (antibody, V domains shown)", "VH": "EVQLVESGGGLVQPGRSLRLSCAASGFTFHDYAMHWVRQAPGKGLEWVSGISWNSGSIGYADSVKGRFTISRDNAKNSLYLQMNSLRAEDTALYYCAKDTFGSSSWYRGDSYYYYGMDVWGQGTTVTVSS", "VL": "QSALTQPASVSGSPGQSITISCTGTSSDVGGYNYVSWYQQHPGKAPKLMIYEVSNRPSGVSNRFSGSKSGNTASLTISGLQAEDEADYYCSSYTSSSTQRYVVFGGGTKLTVL"}, "B20": {"name": "antibody 516 (antibody, V domains shown)", "VH": "QVELQQWGAGLLKPSETLSLTCAVYGGSFSGYYWSWIRQPPGKGLEWIGEINHSGSTNYNPSLKSRVTISIDTSKNQFSLKLSSVTAADTAVYYCARGTTVTTFFAPHWYFDLWGRGTLVTVSS", "VL": "QSALTQPASVSGSPGQSITISCTGTSSDVGGYNYVSWYQQHPGKAPKLMIYDVSNRPSGVSNRFSGSKSGNTASLTISGLQAEDEADYYCSSYTSSSTPYVFGTGTKVTVL"}, "B21": {"name": "antibody 541 (antibody, V domains shown)", "VH": "QVQLVQSGAEVKKPGASVKVSCKASGYTFTSYYVHWVRQAPGQSLEWMGVISPSTGSTTYAQNFQGRVTMTRDTSTTTVYMELSSLRSEDTAVYYCARDDYYDSTRYFDLWGRGTLVTVSS", "VL": "not shown"}, "B22": {"name": "antibody 522 (antibody, V domains shown)", "VH": "EVQLVESGGGLVQPGGSLRLSCAASGFNFSSYSMNWVRQAPGKGLEWVSYISSSSSTIYYADSVKGRFTISRDNAKNSLYLQMNSLRDEDTAVYYCARGPEWDIVVVQAENWFDPWGQGTLVTVSS", "VL": "SYELTQPPSVSVSPGQTARITCSGDALPKQYVYWYQQKPGQAPVLVIYKDSERPSGIPERFSGSSSGTTVTLTISGVQAEDEADYYCQSADSSGTYRGVFGGGTKLTVL"}, "B23": {"name": "antibody 533 (antibody, V domains shown)", "VH": "GVQLVESGGVVVQPGGSLRLSCAASGFSFDDYTMHWVRQAPGKGLEWVSLVSWDGGTTYYTDSVKGRFTISRDNSKNSLYLQMNSLRTEDTALYFCAKDSGRIVPAATFDYWGQGTLVTVSS", "VL": "DIQMTQSSSSLSASVGDRVTITCRASQDISNYLAWFQQKPGKAPKSLIYAASSLQSGVPSKFSGSGSGTDFTLTISSLQPEDFATYYCQQYYTYPLTFGGGTKVEIK"}, "B24": {"name": "antibody 523 (antibody, V domains shown)", "VH": "EVQLVESGGVSVQPGGSLRLSCAASGFSFNTYDMHWVRQGTGKGLEWVSGIGTAGDTYYSDSVKGRCTISRDNAKNSLHLLVKSVRAADTAVYYCARGVGGIIDYWGQGTLVTVSS", "VL": "NFVLSQPHSVSESPGKTVTISCTGNSGSIATKYVQWFQQRPGSAPTTVIYEDNQRPSGVPDRFSGSSDSSSNSASLTISGLKTEDEAHYYCQSYHNRRWVFGGGTKLTVL"}}, "note": "Residue numbers refer to the chain shown, from its start.", "data": [{"molecular_target": "SARS-CoV-2 full length spike protein (wild-type), conjugated to optically encoded beads (SARS-CoV-2, UniProt P0DTC2 14-1208)", "units": {"median fluorescence fold over isotype": "fold over isotype"}, "values": [{"binder": "B1", "median fluorescence fold over isotype": 496}, {"binder": "B2", "median fluorescence fold over isotype": 434}, {"binder": "B3", "median fluorescence fold over isotype": 709}]}, {"molecular_target": "SARS-CoV-2 full length spike protein (wild type) (SARS-CoV-2, UniProt P0DTC2 14-1208)", "units": {"median fluorescence intensity fold over isotype": "fold over isotype control"}, "values": [{"binder": "B4", "median fluorescence intensity fold over isotype": 442}, {"binder": "B5", "median fluorescence intensity fold over isotype": 413}, {"binder": "B6", "median fluorescence intensity fold over isotype": 890}, {"binder": "B7", "median fluorescence intensity fold over isotype": 562}, {"binder": "B8", "median fluorescence intensity fold over isotype": 850}, {"binder": "B9", "median fluorescence intensity fold over isotype": 874}, {"binder": "B10", "median fluorescence intensity fold over isotype": 994}, {"binder": "B11", "median fluorescence intensity fold over isotype": 404}, {"binder": "B12", "median fluorescence intensity fold over isotype": 1030}, {"binder": "B13", "median fluorescence intensity fold over isotype": 497}, {"binder": "B14", "median fluorescence intensity fold over isotype": 1200}, {"binder": "B15", "median fluorescence intensity fold over isotype": 193}, {"binder": "B16", "median fluorescence intensity fold over isotype": 869}, {"binder": "B17", "median fluorescence intensity fold over isotype": 547}]}, {"molecular_target": "SARS-CoV spike protein (full-length trimeric, on beads) (SARS-CoV, UniProt P59594 14-1190)", "units": {"bead binding signal, fold over isotype control": "fold over isotype"}, "values": [{"binder": "B18", "bead binding signal, fold over isotype control": 1.04}, {"binder": "B19", "bead binding signal, fold over isotype control": 1.03}, {"binder": "B20", "bead binding signal, fold over isotype control": 1.03}, {"binder": "B21", "bead binding signal, fold over isotype control": 1.2}, {"binder": "B22", "bead binding signal, fold over isotype control": 1.21}, {"binder": "B23", "bead binding signal, fold over isotype control": 1.23}, {"binder": "B24", "bead binding signal, fold over isotype control": 1.11}]}]}
